# Experimental data: PMC9864903, “Imaging of the Glucose-Dependent Insulinotropic Polypeptide Receptor Using a Novel Radiolabeled Peptide Rationally Designed Based on Endogenous GIP and Synthetic Exendin-4 Sequences” (Pharmaceuticals, 2022)
# How the values were obtained:
# [1] = dynamic PET/CT organ distribution in pig; format: in vivo; conditions: liver, total radioactivity, dynamic PET/CT
# Source text: An anesthetized pig (25 kg) was positioned to include the abdomen with pancreas in the center of the 25 cm axial field of view of a Discovery MI PET/CT scanner (GE Healthcare, MI, USA) by assistance of a low-dose CT scout view (140 kV, 10 mAs). The details of the animal handling, preparation, and anesthesia have been previously described.
# Attenuation correction was acquired by a 140 kV, 10–80 mA CT examination. The administration of [^68Ga]Ga-C803-GIP (17.3 MBq, corresponding to approximately 2.5 μg peptide or 0.10 μg/kg) was made upon the start of the baseline dynamic scan lasting for 90 min (30 frames; […]). The dynamic scan was followed by a static scan over the brain from 90–120 min post administration. A second PET investigation was performed after an additional 2 h to allow the radioactivity from the first scan to fade from the circulation by decay and excretion.
# The GIP(1-42) infusion was continued until the end of the PET scan. Finally, after the last PET scan, a contrast-enhanced CT scan was performed to assist delineation of the tissues, e.g., the pancreas.
# Segmentation of the tissues of interest (descending aorta, pancreas, spleen, kidney, liver, and muscle) was performed in PMOD (PMOD Technologies), and time–activity curves were expressed as SUV as detailed above.
# [2] = format: in vitro ADME; conditions: 37 °C, polyacrylamide gel electrophoresis with autoradiography
# Method: Stability of [^68Ga]Ga-GIP-C803 was studied in human plasma, wherein the agent was incubated at 37 °C for under 30 s, 5 min, 45 min, and 90 min. Thereafter, the samples were analyzed by polyacrylamide gel electrophoresis. To enable the interpretation of the results, a number of references were applied along with the molecular weight marker (Figure S2). The gel was imaged by GelDoc Go Imaging System (Biorad, Hercules, CA, USA) for protein/peptide signals and, thereafter, exposed to a phosphor-imager screen overnight and digitalized using the Cyclone Phosphor Imager system (PerkinElmer) for radioactivity signals. The amount of the sample radioactivity loaded on the gel was controlled by a reference drop of the same sample volume on a filter paper exposed to the same screen. The images were analyzed by ImageJ (NIH, Bethesda, MD, USA) and Image Lab (Biorad) software.
# Radiolabeling of C803‐GIP
# Figure 1S. Typical HPLC-chromatograms with UV absorption profile (lower panel) and radioactivity signal profile (upper panel) of [68Ga]Ga-C803-GIP.
# Stability of [68Ga]Ga‐GIP‐C803 in human plasma
# Stability of [68Ga]Ga-GIP-C803 was studied in human plasma, wherein the agent was incubated at 37 °C for under 30 seconds, 5 min, 45 min and 90 min. Thereafter, the samples were analyzed by polyacrylamide gel electrophoresis. […] The images were analyzed by ImageJ (NIH, US) and Image Lab (Biorad) software. […]
# [3] = ex vivo organ distribution in Sprague Dawley rats; conditions: rat, i.v.
# Method: The in vivo organ distribution of [^68Ga]Ga-C803-GIP was assessed in Sprague Dawley rats (324 ± 36 g, male, n = 16). The radiotracer was administered into the tail vein of unsedated animals as a bolus in 0.5–0.6 mL of PBS as the vehicle. The animals received 4.1 ± 2.2 MBq/kg ^68Ga]Ga-C803-GIP corresponding to 2.4 ± 1.3 µg/kg peptide mass.
# The in vivo organ distribution was conducted for 5 to 180 min, euthanizing two animals at each of eight time points (5, 10, 20, 40, 60, 90, 120, or 180 min). Samples of blood, heart, lung, liver, pancreas, spleen, adrenal, kidney, small intestine (without/with its content), large intestine (without its content), feces, urinary bladder (rinsed), testis, muscle, bone, bone marrow, thyroid, and brain were immediately harvested, weighed, and measured for radioactivity (gamma counter). The organ uptake of [^68Ga]Ga-C803-GIP was corrected for radioactivity decay to the time point of administration and expressed as standardized uptake values (SUVs, Equation (1)). (1) SUV (1/1)=Radioactivitytissue (Bq)/Weighttissue(g)/Radioactivityinjected (Bq)/Weightbody(g)
# The competition experiments were designed and guided by the results of the organ distribution study. Based on the observed rapid clearance of [^68Ga]Ga-C803-GIP from the pancreas (known to contain the GIPR), 20 min post-administration was the time point selected for the blocking studies. The rats (351 ± 23 g, male, n = 8) were administered [^68Ga]Ga-C803-GIP (18.4 ± 3.7 MBq/kg; 10.7 ± 2.2 µg/kg). A high radioactive dose was selected to potentially increase the tissue signal. Half of them (n = 4) received [^68Ga]Ga-C803-GIP alone, while the other half was co-injected with 1 mg/kg of non-labeled C803-GIP. The animals were sacrificed 20 min after the administration of [^68Ga]Ga-C803-GIP, and the tissue uptake of the tracer was analyzed as described above.
smiles,measurement,setting,value
"CC[C@H](C)[C@H](NC(=O)[C@H](CO)NC(=O)[C@H](Cc1ccc(O)cc1)NC(=O)[C@H](CC(=O)O)NC(=O)[C@H](CO)NC(=O)[C@@H](NC(=O)[C@H](Cc1ccccc1)NC(=O)[C@@H](NC(=O)CNC(=O)[C@H](CCC(=O)O)NC(=O)[C@@H](C)NC(=O)[C@@H](N)Cc1ccc(O)cc1)[C@@H](C)O)[C@@H](C)CC)C(=O)N[C@@H](C)C(=O)N[C@@H](CC(C)C)C(=O)N[C@@H](CC(=O)O)C(=O)N[C@@H](CCCCN)C(=O)N[C@H](C(=O)N[C@@H](Cc1c[nH]cn1)C(=O)N[C@@H](CCC(N)=O)C(=O)N[C@@H](CCC(N)=O)C(=O)N[C@@H](CCC(=O)O)C(=O)N[C@@H](Cc1ccccc1)C(=O)N[C@H](C(=O)N[C@@H](CCC(=O)O)C(=O)N[C@@H](Cc1c[nH]c2ccccc12)C(=O)N[C@@H](CC(C)C)C(=O)N[C@@H](CCCCN)C(=O)N[C@@H](C)C(=O)NCC(=O)NCC(=O)N[C@@H](Cc1c[nH]cn1)C(=O)N1CCC[C@H]1C(=O)N[C@@H](CO)C(=O)NCC(=O)N[C@@H](C)C(=O)N1CCC[C@H]1C(=O)N1CCC[C@H]1C(=O)N1CCC[C@H]1C(=O)N[C@@H](CO)C(=O)N[C@@H](CSCCS(=O)(=O)CCN1CCN(CC(=O)O)CCN(CC(=O)O)CCN(CC(=O)O)CC1)C(N)=O)[C@@H](C)CC)[C@@H](C)CC [[^68Ga]Ga-C803-GIP, metal not drawn]",SUV at 0.5 h,[1]; read-out: uptake in the liver after 30 min,< 1 SUV
same,SUV at 1.5 h,[1]; read-out: uptake in the liver after 90 min,~0.5 SUV
same,time stable in human plasma,"[2]; incubated <30 s, 5, 45, 90 min",at least 90 min
same,stability in human plasma (in words),[2]; up to 90 min,stable
same,SUV at 5 min,"[3]; male, Sprague Dawley, liver, iv, total radioactivity, 5 min post-administration, read-out: liver uptake",< 1 SUV
same,"liver washout with respect to the 5 min time point, within 1 h",[3],50%
same,"liver washout with respect to the 5 min time point, within 3 h",[3],75%
same,kidney uptake,[3]; within 3 h,85.5 ± 1.6 SUV
